Experimental findings from paper PMC7490560 (2020) are described below.

One assay has as its target T1, FOSB (Homo sapiens, UniProt P53539).
T1 chain: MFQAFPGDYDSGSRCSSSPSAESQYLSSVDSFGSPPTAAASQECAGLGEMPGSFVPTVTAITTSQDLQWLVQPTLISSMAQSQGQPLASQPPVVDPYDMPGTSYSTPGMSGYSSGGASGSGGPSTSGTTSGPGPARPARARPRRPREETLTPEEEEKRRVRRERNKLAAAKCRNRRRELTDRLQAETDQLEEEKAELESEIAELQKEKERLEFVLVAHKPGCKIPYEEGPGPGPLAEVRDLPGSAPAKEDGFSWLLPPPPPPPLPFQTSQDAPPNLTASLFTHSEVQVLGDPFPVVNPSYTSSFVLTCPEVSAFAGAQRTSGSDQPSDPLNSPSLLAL
Kind of assay: DULIP (scaled).

Another assay has as its target T2, DDIT3 (Homo sapiens, UniProt P35638).
T2 chain: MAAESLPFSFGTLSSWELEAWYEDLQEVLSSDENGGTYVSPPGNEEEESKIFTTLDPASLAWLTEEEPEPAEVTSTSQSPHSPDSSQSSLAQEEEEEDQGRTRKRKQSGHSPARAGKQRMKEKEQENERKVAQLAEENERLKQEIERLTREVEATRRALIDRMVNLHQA
Description: DULIP (scaled).

Assay [1] has as its target T3, FOSL2 (Homo sapiens, UniProt P15408).
T3 chain: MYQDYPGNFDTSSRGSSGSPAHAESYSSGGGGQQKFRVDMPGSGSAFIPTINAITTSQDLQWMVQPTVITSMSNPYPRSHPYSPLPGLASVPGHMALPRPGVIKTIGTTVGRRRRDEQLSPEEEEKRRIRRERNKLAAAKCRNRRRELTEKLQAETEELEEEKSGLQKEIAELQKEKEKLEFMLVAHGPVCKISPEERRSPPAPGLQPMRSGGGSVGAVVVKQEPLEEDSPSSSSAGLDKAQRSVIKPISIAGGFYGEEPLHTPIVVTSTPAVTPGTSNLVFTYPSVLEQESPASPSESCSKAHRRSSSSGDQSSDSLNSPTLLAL
Kind of assay: DULIP (scaled).

Assay [2] has as its target T4, CEBPG (Homo sapiens, UniProt P53567).
T4 chain: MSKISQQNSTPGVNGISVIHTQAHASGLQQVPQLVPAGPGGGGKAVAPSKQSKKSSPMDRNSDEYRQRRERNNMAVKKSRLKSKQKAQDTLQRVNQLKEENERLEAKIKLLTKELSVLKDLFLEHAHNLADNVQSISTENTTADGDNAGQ
Kind of assay: DULIP (scaled).

Assay [3] concerns the target T5, ELF3 (Homo sapiens, UniProt P78545).
T5 chain: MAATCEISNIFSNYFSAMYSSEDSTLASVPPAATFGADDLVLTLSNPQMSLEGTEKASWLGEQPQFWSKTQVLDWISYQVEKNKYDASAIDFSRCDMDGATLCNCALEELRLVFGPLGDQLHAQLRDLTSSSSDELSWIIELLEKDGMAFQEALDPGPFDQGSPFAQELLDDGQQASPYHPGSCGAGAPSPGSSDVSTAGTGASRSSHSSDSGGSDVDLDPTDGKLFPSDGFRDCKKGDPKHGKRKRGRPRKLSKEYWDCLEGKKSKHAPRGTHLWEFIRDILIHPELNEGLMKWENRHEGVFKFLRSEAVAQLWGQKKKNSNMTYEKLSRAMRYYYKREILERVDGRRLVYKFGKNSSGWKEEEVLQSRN
Description: DULIP (scaled).

Another assay deals with T6, MAP2K6 (Homo sapiens, UniProt P52564).
T6 chain: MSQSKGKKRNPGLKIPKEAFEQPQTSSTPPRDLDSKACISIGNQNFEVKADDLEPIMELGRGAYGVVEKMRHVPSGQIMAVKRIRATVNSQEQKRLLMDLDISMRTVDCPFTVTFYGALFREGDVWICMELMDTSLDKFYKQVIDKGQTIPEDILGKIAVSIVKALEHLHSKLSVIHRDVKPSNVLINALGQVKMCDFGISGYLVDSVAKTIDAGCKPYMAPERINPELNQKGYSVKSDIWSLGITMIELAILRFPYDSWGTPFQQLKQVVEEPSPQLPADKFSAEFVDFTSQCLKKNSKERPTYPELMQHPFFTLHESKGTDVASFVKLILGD
Kind of assay: DULIP (scaled).

The target in assay [4] is T3, FOSL2. Kind of assay: FCCS (live HEK293T cells).
The target in assay [5] is T4, CEBPG. Description: FCCS (live HEK293T cells).
Assay [6] deals with T5, ELF3. Kind of assay: FCCS (live HEK293T cells).
In the next assay the target is T7, CREBL2 (Homo sapiens, UniProt O60519).
T7 chain: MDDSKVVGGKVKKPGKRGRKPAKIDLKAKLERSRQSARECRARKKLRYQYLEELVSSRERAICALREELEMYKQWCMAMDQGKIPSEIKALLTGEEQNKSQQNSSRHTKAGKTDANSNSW
Kind of assay: FCCS (live HEK293T cells).

The target in the next assay is EIF3J (Homo sapiens, UniProt O75822). Description: FCCS (live HEK293T cells).
Chain of EIF3J (O75822 2-258): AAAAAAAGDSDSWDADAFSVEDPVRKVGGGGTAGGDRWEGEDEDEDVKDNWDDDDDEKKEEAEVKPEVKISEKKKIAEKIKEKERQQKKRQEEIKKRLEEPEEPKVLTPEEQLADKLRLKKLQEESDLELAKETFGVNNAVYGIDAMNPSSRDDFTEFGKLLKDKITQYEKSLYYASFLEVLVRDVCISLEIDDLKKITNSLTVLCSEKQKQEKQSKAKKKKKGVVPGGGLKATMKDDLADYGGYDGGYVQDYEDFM

B1: NRF2 (protein)
chain: MMDLELPPPGLPSQQDMDLIDILWRQDIDLGVSREVFDFSQRRKEYELEKQKKLEKERQEQLQKEQEKAFFAQLQLDEETGEFLPIQPAQHIQSETSGSANYSQVAHIPKSDALYFDDCMQLLAQTFPFVDDNEVSSATFQSLVPDIPGHIESPVFIATNQAQSPETSVAQVAPVDLDGMQQDIEQVWEELLSIPELQCLNIENDKLVETTMVPSPEAKLTEVDNYHFYSSIPSMEKEVGNCSPHFLNAFEDSFSSILSTEDPNQLTVNSLNSDATVNTDFGDEFYSAFIAEPSISNSMPSPATLSHSLSELLNGPIDVSDLSLCKAFNQNHPESTAEFNDSDSGISLNTSPSVASPEHSVESSSYGDTLLGLSDSEVEELDSAPGSVKQNGPKTPVHSSGDMVQPLSPSQGQSTHVHDAQCENTPEKELPVSPGHRKTPFTKDKHSSRLEAHLTRDELRAKALHIPFPVEKIINLPVVDFNEMMSKEQFNEAQLALIRDIRRRGKNKVAAQNCRKRKLENIVELEQDLDHLKDEKEKLLKEKGENDKSLHLLKKQLSTLYLEVFSMLRDEDGKPYSPSEYSLQQTRDGNVFLVPKSKKPDVKKN
As a reminder, the Kd is the constant that tells how readily two partners part at equilibrium. Low readings indicate tighter binding, high ones weaker binding. B1: the Kd with FOSB, with DDIT3, with FOSL2 [1], with CEBPG [2], in the assay with ELF3 [3] and with MAP2K6 was over 9 µM each time. The equilibrium dissociation constant (Kd) with FOSL2 [4], with CEBPG [5], with ELF3 [6], in the assay with CREBL2 and with EIF3J was over 10 µM in each case.
